The values below come from patent US20240321457A1 (University of California, published 2024).

Bounds are passed on as bounds.

Assay [1] concerns the target T1, UBE2N (human, UniProt P61088 1-152).
T1 construct: endogenous prey from cell lysate; also called UBC13
T1 sequence (looked up): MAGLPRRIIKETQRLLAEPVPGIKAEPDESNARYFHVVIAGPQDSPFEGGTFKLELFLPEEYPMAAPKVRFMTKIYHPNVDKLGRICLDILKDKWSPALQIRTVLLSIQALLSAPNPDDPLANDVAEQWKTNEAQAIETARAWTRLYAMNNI
The assay is described as follows: quantitative AP-MS, prey abundance normalised to bait, MDA-MB-231 cells.

Assay [2] addresses T1, UBE2N. The assay is described as follows: AP-MS, PPI score from compPASS and SAINTexpress, MDA-MB-231 cells.
Description: For AP-MS experiments, samples were resuspended in 15 μL of MS loading buffer (4% formic acid, 2% acetonitrile) and 2 μL were separated by a reversed-phase gradient over a nanoflow 75 μm ID×25 cm long picotip column packed with 1.9 μM C18 particles (Dr. Maisch). Peptides were directly injected over the course of a 75 min acquisition into a Q-Exactive Plus mass spectrometer (Thermo), or over the course of a 90 min acquisition into a Orbitrap Elite mass spectrometer. […] Peptides and proteins were filtered to 1% false discovery rate in MaxQuant, and identified proteins were then subjected to protein-protein interaction scoring.
All PPI scoring was performed separately for each cell line. For SAINTexpress, control samples in which bait protein was not induced by addition of doxycycline were used. For CompPASS, a stats table representing all WT baits was used. After scoring, the CompPASS WD and Z-score were normalized within a given bait for each cell line. The total list of candidate PPIs was filtered to those that met the following criteria: SAINTexpress BFDR=<0.05, WD percentile by bait>=0.95, and Z-score percentile by bait≤=0.95. PPIs passing all 3 of these criteria were considered to be high-confidence PPIs. To enable visualization and analysis of PPIs by confidence score among these 3 criteria, a PPI score was calculated: [(WD percentile by bait+Z-score percentile by bait)/2)+(1−BFDR)]/2.
A further assay deals with T2, BRCA1 S1655F (human, UniProt P38398 1-1863).
T2 construct: 3xFLAG-tagged bait; also called BRCT domain mutant S1655F; 51655F
The assay is described as follows: AP-MS, 3xFLAG bait, MDA-MB-231 cells.

A further assay deals with T3, BRCA1 M1775R (human, UniProt P38398 1-1863).
T3 construct: 3xFLAG-tagged bait; also called BRCT domain mutant M1775R
The assay is described as follows: AP-MS, 3xFLAG bait, MDA-MB-231 cells.

The next assay deals with T4, BRCA1 5382insC (human, UniProt P38398 1-1755, limits assumed).
T4 construct: 3xFLAG-tagged bait; also called 5832insC
The assay is described as follows: AP-MS, 3xFLAG bait, MDA-MB-231 cells.

A further assay has as its target AKT3 E17K mutant (human, UniProt Q9Y243 1-479). The assay is described as follows: AP-MS, 3xFLAG bait, breast cell lines.
The target in the next assay is AKT1 E17K mutant (human, UniProt P31749 1-480). The assay is described as follows: AP-MS, 3xFLAG bait, breast cell lines.
AKT1 E17K mutant, sequence (P31749 whole entry E17K): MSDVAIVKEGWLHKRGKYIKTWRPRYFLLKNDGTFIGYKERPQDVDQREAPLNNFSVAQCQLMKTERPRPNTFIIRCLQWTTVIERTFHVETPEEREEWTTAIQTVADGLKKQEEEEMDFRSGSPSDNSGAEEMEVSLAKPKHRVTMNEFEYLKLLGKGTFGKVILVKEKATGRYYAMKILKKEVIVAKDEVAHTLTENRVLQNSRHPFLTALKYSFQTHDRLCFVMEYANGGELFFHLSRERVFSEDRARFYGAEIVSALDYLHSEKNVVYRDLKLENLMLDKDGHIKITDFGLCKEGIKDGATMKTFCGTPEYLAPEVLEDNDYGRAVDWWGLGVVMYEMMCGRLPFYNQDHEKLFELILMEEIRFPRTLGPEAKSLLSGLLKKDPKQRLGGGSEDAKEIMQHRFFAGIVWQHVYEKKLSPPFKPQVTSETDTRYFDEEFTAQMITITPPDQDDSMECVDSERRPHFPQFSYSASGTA

AKT3 E17K mutant, sequence (Q9Y243 whole entry E17K): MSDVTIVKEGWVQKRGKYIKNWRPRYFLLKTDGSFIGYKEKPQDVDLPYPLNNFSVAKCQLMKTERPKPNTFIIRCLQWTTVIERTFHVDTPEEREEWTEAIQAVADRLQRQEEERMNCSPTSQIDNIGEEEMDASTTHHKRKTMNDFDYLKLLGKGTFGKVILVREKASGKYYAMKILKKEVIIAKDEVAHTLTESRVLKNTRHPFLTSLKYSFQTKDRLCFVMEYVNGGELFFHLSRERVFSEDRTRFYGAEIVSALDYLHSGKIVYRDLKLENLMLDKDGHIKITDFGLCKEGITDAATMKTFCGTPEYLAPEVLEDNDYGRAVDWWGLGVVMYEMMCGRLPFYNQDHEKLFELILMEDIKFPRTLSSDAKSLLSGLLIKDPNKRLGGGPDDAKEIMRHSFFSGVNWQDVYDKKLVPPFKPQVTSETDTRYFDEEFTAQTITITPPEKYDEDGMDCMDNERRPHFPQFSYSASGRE

B1: BRCA1 I26A (enzyme, human, UniProt P38398 1-1863, looked up)
chain: MDLSALRVEEVQNVINAMQKILECPACLELIKEPVSTKCDHIFCKFCMLKLLNQKKGPSQCPLCKNDITKRSLQESTRFSQLVEELLKIICAFQLDTGLEYANSYNFAKKENNSPEHLKDEVSIIQSMGYRNRAKRLLQSEPENPSLQETSLSVQLSNLGTVRTLRTKQRIQPQKTSVYIELGSDSSEDTVNKATYCSVGDQELLQITPQGTRDEISLDSAKKAACEFSETDVTNTEHHQPSNNDLNTTEKRAAERHPEKYQGSSVSNLHVEPCGTNTHASSLQHENSSLLLTKDRMNVEKAEFCNKSKQPGLARSQHNRWAGSKETCNDRRTPSTEKKVDLNADPLCERKEWNKQKLPCSENPRDTEDVPWITLNSSIQKVNEWFSRSDELLGSDDSHDGESESNAKVADVLDVLNEVDEYSGSSEKIDLLASDPHEALICKSERVHSKSVESNIEDKIFGKTYRKKASLPNLSHVTENLIIGAFVTEPQIIQERPLTNKLKRKRRPTSGLHPEDFIKKADLAVQKTPEMINQGTNQTEQNGQVMNITNSGHENKTKGDSIQNEKNPNPIESLEKESAFKTKAEPISSSISNMELELNIHNSKAPKKNRLRRKSSTRHIHALELVVSRNLSPPNCTELQIDSCSSSEEIKKKKYNQMPVRHSRNLQLMEGKEPATGAKKSNKPNEQTSKRHDSDTFPELKLTNAPGSFTKCSNTSELKEFVNPSLPREEKEEKLETVKVSNNAEDPKDLMLSGERVLQTERSVESSSISLVPGTDYGTQESISLLEVSTLGKAKTEPNKCVSQCAAFENPKGLIHGCSKDNRNDTEGFKYPLGHEVNHSRETSIEMEESELDAQYLQNTFKVSKRQSFAPFSNPGNAEEECATFSAHSGSLKKQSPKVTFECEQKEENQGKNESNIKPVQTVNITAGFPVVGQKDKPVDNAKCSIKGGSRFCLSSQFRGNETGLITPNKHGLLQNPYRIPPLFPIKSFVKTKCKKNLLEENFEEHSMSPEREMGNENIPSTVSTISRNNIRENVFKEASSSNINEVGSSTNEVGSSINEIGSSDENIQAELGRNRGPKLNAMLRLGVLQPEVYKQSLPGSNCKHPEIKKQEYEEVVQTVNTDFSPYLISDNLEQPMGSSHASQVCSETPDDLLDDGEIKEDTSFAENDIKESSAVFSKSVQKGELSRSPSPFTHTHLAQGYRRGAKKLESSEENLSSEDEELPCFQHLLFGKVNNIPSQSTRHSTVATECLSKNTEENLLSLKNSLNDCSNQVILAKASQEHHLSEETKCSASLFSSQCSELEDLTANTNTQDPFLIGSSKQMRHQSESQGVGLSDKELVSDDEERGTGLEENNQEEQSMDSNLGEAASGCESETSVSEDCSGLSSQSDILTTQQRDTMQHNLIKLQQEMAELEAVLEQHGSQPSNSYPSIISDSSALEDLRNPEQSTSEKAVLTSQKSSEYPISQNPEGLSADKFEVSADSSTSKNKEPGVERSSPSKCPSLDDRWYMHSCSGSLQNRNYPSQEELIKVVDVEEQQLEESGPHDLTETSYLPRQDLEGTPYLESGISLFSDDPESDPSEDRAPESARVGNIPSSTSALKVPQLKVAESAQSPAAAHTTDTAGYNAMEESVSREKPELTASTERVNKRMSMVVSGLTPEEFMLVYKFARKHHITLTNLITEETTHVVMKTDAEFVCERTLKYFLGIAGGKWVVSYFWVTQSIKERKMLNEHDFEVRGDVVNGRNHQGPKRARESQDRKIFRGLEICCYGPFTNMPTDQLEWMVQLCGASVVKELSSFTLGTGVHPIVVVQPDAWTEDNGFHAIGQMCEAPVVTREWVLDSVALYQCQELDTYLIPQIPHSHY
notes: 3xFLAG-tagged bait; printed I16A in the embodiments; also called RING domain mutant I26A
Consider B1, for which, in the assay with UBE2N [1], the “fold reduction of associated prey compared to WT” value came to 6 fold. In the assay with UBE2N [2], the PPI score is less than 0.6.

B2: UIMC1 (other, human, UniProt Q96RL1 1-719, looked up)
chain: MPRRKKKVKEVSESRNLEKKDVETTSSVSVKRKRRLEDAFIVISDSDGEEPKEENGLQKTKTKQSNRAKCLAKRKIAQMTEEEQFALALKMSEQEAREVNSQEEEEEELLRKAIAESLNSCRPSDASATRSRPLATGPSSQSHQEKTTDSGLTEGIWQLVPPSLFKGSHISQGNEAEEREEPWDHTEKTEEEPVSGSSGSWDQSSQPVFENVNVKSFDRCTGHSAEHTQCGKPQESTGRGSAFLKAVQGSGDTSRHCLPTLADAKGLQDTGGTVNYFWGIPFCPDGVDPNQYTKVILCQLEVYQKSLKMAQRQLLNKKGFGEPVLPRPPSLIQNECGQGEQASEKNECISEDMGDEDKEERQESRASDWHSKTKDFQESSIKSLKEKLLLEEEPTTSHGQSSQGIVEETSEEGNSVPASQSVAALTSKRSLVLMPESSAEEITVCPETQLSSSETFDLEREVSPGSRDILDGVRIIMADKEVGNKEDAEKEVAISTFSSSNQVSCPLCDQCFPPTKIERHAMYCNGLMEEDTVLTRRQKEAKTKSDSGTAAQTSLDIDKNEKCYLCKSLVPFREYQCHVDSCLQLAKADQGDGPEGSGRACSTVEGKWQQRLKNPKEKGHSEGRLLSFLEQSEHKTSDADIKSSETGAFRVPSPGMEEAGCSREMQSSFTRRDLNESPVKSFVSISEATDCLVDFKKQVTVQPGSRTRTKAGRGRRRKF
notes: endogenous prey from cell lysate
As for B2, the binding result in the assay with BRCA1 S1655F, in the assay with BRCA1 M1775R and in the assay with BRCA1 5382insC was “no binding” in each case.

B3: S100 Calcium Binding Protein A3 (other, human, UniProt P33764 2-101, looked up)
chain: ARPLEQAVAAIVCTFQEYAGRCGDKYKLCQAELKELLQKELATWTPTEFRECDYNKFMSVLDTNKDCEVDFVEYVRSLACLCLYCHEYFKDCPSEPPCSQ
notes: endogenous prey from cell lysate; also called S100A3
Consider B3, for which the binding result in the assay with AKT3 E17K mutant is “no binding”.

B4: keratin KRT32 (other, human, UniProt Q14532 1-448, looked up)
chain: MTSSCCVTNNLQASLKSCPRPASVCSSGVNCRPELCLGYVCQPMACLPSVCLPTTFRPASCLSKTYLSSSCQAASGISGSMGPGSWYSEGAFNGNEKETMQFLNDRLASYLTRVRQLEQENAELESRIQEASHSQVLTMTPDYQSHFRTIEELQQKILCTKAENARMVVNIDNAKLAADDFRAKYEAELAMRQLVEADINGLRRILDDLTLCKADLEAQVESLKEELMCLKKNHEEEVGSLRCQLGDRLNIEVDAAPPVDLTRVLEEMRCQYEAMVEANRRDVEEWFNMQMEELNQQVATSSEQLQNYQSDIIDLRRTVNTLEIELQAQHSLRDSLENTLTESEARYSSQLAQMQCMITNVEAQLAEIRADLERQNQEYQVLLDVRARLEGEINTYRSLLENEDCKLPCNPCSTPSCTTCVPSPCVPRTVCVPRTVGMPCSPCPQGRY
notes: as for B2
As to B4, the binding result in the assay with AKT3 E17K mutant was “no binding”.

B5: SPRR3 (other, human, UniProt Q9UBC9 2-169, looked up)
chain: SSYQQKQTFTPPPQLQQQQVKQPSQPPPQEIFVPTTKEPCHSKVPQPGNTKIPEPGCTKVPEPGCTKVPEPGCTKVPEPGCTKVPEPGCTKVPEPGCTKVPEPGYTKVPEPGSIKVPDQGFIKFPEPGAIKVPEQGYTKVPVPGYTKLPEPCPSTVTPGPAQQKTKQK
notes: as for B2
For the molecule B5, the binding result with AKT1 E17K mutant was “no binding”.
